Experimental data from patent US20050065327A1 (AstraZeneca / MedImmune, published 2005).

What was measured:
Experiment in all cases: cell-based or functional assay
[1] = biological target: non-human primate IL-13 (rhesus and cynomolgus, identical sequences) with carboxyl terminus affinity tag … (rhesus and cynomolgus monkey)
[2] = biological target: human IL-13 (recombinant, bacterially derived, Peprotech) (human, UniProt P35225 15-146)
[3] = biological target: native (naturally occurring) human IL-13 released from HDLM-2 cells (human, UniProt P35225 15-146)
Chain of native (naturally occurring) human IL-13 released from HDLM-2 cells (P35225 other isoform, or with tags, fused parts or gaps): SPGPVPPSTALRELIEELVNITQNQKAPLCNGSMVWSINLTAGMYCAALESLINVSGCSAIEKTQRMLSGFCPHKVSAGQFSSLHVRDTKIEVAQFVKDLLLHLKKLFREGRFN

Chain of human IL-13 (recombinant, bacterially derived, Peprotech) (P35225 other isoform, or with tags, fused parts or gaps): as above
Chain of non-human primate IL-13 (rhesus and cynomolgus, identical sequences) with carboxyl terminus affinity tag … (rhesus and cynomolgus monkey) (Q864V6 19-132): as the sequence (P35225 other isoform, or with tags, fused parts or gaps) above, with G3S, P7R, R12K, M44V, S69N, H85R, L102V counted along it

Binder	Mean TF1 IC50 [2]	further results
BAK502G9 IgG4 (antibody, V domains shown) VH: QVQLVQSGAEVKKPGASVKVSCKASGYTFTNYGLSWVRQAPGQGLEWMGWISANNGDTNYGQEFQGRVTMTTDTSTSTAYMELRSLRSDDTAVYYCARDSSSSWARWFFDLWGRGTLVTVSS VL: SYVLTQPPSVSVAPGKTARITCGGNIIGSKLVHWYQQKPGQAPVLVIYDDGDRPSGIPERFSGSNSGNTATLTISRVEAGDEADYYCQVWDTGSDPVVFGGGTKLTVL		IC50, TF-1 cell proliferation assay [1]: 2 nM
BAK502G9 scFv (scFv, V domains shown) VH: QVQLVQSGAEVKKPGASVKVSCKASGYTFTNYGLSWVRQAPGQGLEWMGWISANNGDTNYGQEFQGRVTMTTDTSTSTAYMELRSLRSDDTAVYYCARDSSSSWARWFFDLWGRGTLVTVSS VL: SYVLTQPPSVSVAPGKTARITCGGNIIGSKLVHWYQQKPGQAPVLVIYDDGDRPSGIPERFSGSNSGNTATLTISRVEAGDEADYYCQVWDTGSDPVVFGGGTKLTVL	8 nM	
BAK1183H4 IgG4 (antibody, V domains shown) VH: QVQLVQSGAEVKKPGASVKVSCKASGYTFTNYGLSWVRQAPGQGLEWMGWINYDGGNTQYGQEFQGRVTMTTDTSTSTAYMELRSLRSDDTAVYYCARDSSSSWARWFFDLWGRGTLVTVSS VL: SYVLTQPPSVSVAPGKTARITCGGNIIGSKLVHWYQQKPGQAPVLVIYDDGDRPSGIPERFSGSNSGNTATLTISRVEAGDEADYYCQVWDTGSDPVVFGGGTKLTVL		IC50, HDLM-2 cell proliferation assay [3]: 3500 nM

The next lines start with results.

Mean TF1 IC50 [2]	Binder	further results
0.2 nM	BAK1183H4 scFv (scFv, V domains shown) VH: QVQLVQSGAEVKKPGASVKVSCKASGYTFTNYGLSWVRQAPGQGLEWMGWINYDGGNTQYGQEFQGRVTMTTDTSTSTAYMELRSLRSDDTAVYYCARDSSSSWARWFFDLWGRGTLVTVSS VL: SYVLTQPPSVSVAPGKTARITCGGNIIGSKLVHWYQQKPGQAPVLVIYDDGDRPSGIPERFSGSNSGNTATLTISRVEAGDEADYYCQVWDTGSDPVVFGGGTKLTVL	
0.2 nM	BAK1167F2 scFv (scFv, V domains shown) VH: QVQLVQSGAEVKKPGASVKVSCKASGYTFEQTGVSWVRQAPGQGLEWMGWISANNGDTNYGQEFQGRVTMTTDTSTSTAYMELRSLRSDDTAVYYCARDSSSSWARWFFDLWGRGTLVTVSS VL: SYVLTQPPSVSVAPGKTARITCGGNIIGSKLVHWYQQKPGQAPVLVIYDDGDRPSGIPERFSGSNSGNTATLTISRVEAGDEADYYCQVWDTGSDPVVFGGGTKLTVL	
